Assay [1] addresses T1, Flag-WT-MRE11 (complexed with RAD50) (UniProt P49959 1-708; Q92878 1-1312).
T1 construct: MRE11, Flag-tagged, in the pESC-URA vector; RAD50, His-tagged, in the pESC-URA vector; The results call it Flag-MRE11; also called MRE11/RAD50 complex; Flag-MRE11; source: protease-deficient yeast strain, co-expressed, purified (Ni-NTA, anti-Flag M2 beads)
Description: pull-down; purified proteins incubated in T50 buffer (25 mM Tris-HCl pH 7.5, 10% glycerol, 0.5 mM EDTA, 50 mM KCl, 1 mM DTT, 0.01% Igepal) on ice for 2 h, pulled down by anti-Flag M2 beads; supernatant and eluate immunoblotted. Particulars: both partners purified. On the technique in general: In western blotting, separated proteins are transferred to a membrane and probed.

Assay [2] concerns the target T2, Flag-4KR (complexed with RAD50) (UniProt P49959 1-708; Q92878 1-1312, K255R | K384R | K416R | K467R).
T2 construct: MRE11 with the four lysine-to-arginine mutations (4KR); RAD50, His-tagged, as in the MRE11/RAD50 complex; also called MRE11 4KR mutant; SUMOylation-deficient MRE11; source: purified, complexed with RAD50; the host is told for the MRE11/RAD50 complex: yeast
Described as above. Conditions: both partners purified.

T2 sequence (P49959 whole entry K255R/K384R/K416R/K467R, chain 1 of 2): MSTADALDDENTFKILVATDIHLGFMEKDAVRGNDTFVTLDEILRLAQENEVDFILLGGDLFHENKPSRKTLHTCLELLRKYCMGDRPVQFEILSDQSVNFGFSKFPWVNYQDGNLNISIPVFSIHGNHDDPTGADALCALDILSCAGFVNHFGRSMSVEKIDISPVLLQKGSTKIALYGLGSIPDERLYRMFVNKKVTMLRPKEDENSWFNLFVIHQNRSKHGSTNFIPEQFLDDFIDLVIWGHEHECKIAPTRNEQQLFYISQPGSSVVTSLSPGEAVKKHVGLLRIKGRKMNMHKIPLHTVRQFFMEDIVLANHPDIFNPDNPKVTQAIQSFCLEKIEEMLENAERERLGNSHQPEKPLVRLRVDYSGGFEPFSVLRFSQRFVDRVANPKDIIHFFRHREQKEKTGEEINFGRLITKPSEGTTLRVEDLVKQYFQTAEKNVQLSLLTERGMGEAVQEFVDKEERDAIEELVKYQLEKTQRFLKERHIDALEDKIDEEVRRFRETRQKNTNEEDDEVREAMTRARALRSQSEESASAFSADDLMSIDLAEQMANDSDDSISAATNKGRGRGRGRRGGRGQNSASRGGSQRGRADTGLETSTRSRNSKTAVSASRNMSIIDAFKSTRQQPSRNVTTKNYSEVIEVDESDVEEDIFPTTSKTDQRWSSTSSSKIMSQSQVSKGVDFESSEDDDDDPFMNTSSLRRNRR
T2 sequence (Q92878 whole entry, chain 2 of 2): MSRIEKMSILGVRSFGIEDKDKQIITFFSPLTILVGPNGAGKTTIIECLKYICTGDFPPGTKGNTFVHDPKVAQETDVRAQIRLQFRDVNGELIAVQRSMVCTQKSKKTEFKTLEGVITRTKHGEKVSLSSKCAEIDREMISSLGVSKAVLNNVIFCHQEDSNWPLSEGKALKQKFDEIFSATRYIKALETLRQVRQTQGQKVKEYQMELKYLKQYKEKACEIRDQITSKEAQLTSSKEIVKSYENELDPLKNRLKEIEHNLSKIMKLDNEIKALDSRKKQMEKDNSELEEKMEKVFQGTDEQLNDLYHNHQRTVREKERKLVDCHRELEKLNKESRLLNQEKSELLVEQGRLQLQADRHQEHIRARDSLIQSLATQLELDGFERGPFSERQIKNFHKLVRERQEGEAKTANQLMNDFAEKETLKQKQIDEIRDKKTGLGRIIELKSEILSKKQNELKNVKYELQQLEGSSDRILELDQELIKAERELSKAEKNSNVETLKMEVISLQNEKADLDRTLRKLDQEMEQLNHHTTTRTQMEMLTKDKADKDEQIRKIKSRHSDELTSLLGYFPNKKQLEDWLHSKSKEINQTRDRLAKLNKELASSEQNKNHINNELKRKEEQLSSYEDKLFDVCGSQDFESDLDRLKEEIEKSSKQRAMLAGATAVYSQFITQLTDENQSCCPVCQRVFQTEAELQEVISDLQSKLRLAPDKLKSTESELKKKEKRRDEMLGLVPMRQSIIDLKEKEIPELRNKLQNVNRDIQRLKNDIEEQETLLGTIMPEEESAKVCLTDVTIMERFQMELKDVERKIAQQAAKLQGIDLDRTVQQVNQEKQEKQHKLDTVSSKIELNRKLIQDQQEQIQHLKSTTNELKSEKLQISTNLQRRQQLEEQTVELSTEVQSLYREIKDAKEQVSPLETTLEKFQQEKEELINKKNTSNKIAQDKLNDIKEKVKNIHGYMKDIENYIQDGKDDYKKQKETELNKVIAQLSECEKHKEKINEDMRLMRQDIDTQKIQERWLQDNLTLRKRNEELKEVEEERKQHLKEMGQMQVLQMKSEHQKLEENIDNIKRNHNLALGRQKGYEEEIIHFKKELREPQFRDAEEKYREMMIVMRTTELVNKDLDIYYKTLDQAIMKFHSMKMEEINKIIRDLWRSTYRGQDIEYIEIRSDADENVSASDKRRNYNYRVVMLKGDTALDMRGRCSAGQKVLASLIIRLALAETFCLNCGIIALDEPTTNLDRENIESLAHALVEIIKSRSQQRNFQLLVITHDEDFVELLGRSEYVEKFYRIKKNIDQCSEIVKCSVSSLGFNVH
T1 sequence (P49959 whole entry, chain 1 of 2): as the sequence (P49959 whole entry K255R/K384R/K416R/K467R, chain 1 of 2) above, with R255K, R384K, R416K, R467K counted along it
T1 sequence (Q92878 whole entry, chain 2 of 2): as the sequence (Q92878 whole entry, chain 2 of 2) above

B1: MBP-NBS1 (natural protein, UniProt O60934 1-754, looked up)
chain: MWKLLPAAGPAGGEPYRLLTGVEYVVGRKNCAILIENDQSISRNHAVLTANFSVTNLSQTDEIPVLTLKDNSKYGTFVNEEKMQNGFSRTLKSGDGITFGVFGSKFRIEYEPLVACSSCLDVSGKTALNQAILQLGGFTVNNWTEECTHLVMVSVKVTIKTICALICGRPIVKPEYFTEFLKAVESKKQPPQIESFYPPLDEPSIGSKNVDLSGRQERKQIFKGKTFIFLNAKQHKKLSSAVVFGGGEARLITEENEEEHNFFLAPGTCVVDTGITNSQTLIPDCQKKWIQSIMDMLQRQGLRPIPEAEIGLAVIFMTTKNYCDPQGHPSTGLKTTTPGPSLSQGVSVDEKLMPSAPVNTTTYVADTESEQADTWDLSERPKEIKVSKMEQKFRMLSQDAPTVKESCKTSSNNNSMVSNTLAKMRIPNYQLSPTKLPSINKSKDRASQQQQTNSIRNYFQPSTKKRERDEENQEMSSCKSARIETSCSLLEQTQPATPSLWKNKEQHLSENEPVDTNSDNNLFTDTDLKSIVKNSASKSHAAEKLRSNKKREMDDVAIEDEVLEQLFKDTKPELEIDVKVQKQEEDVNVRKRPRMDIETNDTFSDEAVPESSKISQENEIGKKRELKEDSLWSAKEISNNDKLQDDSEMLPKKLLLTEFRSLVIKNSTSRNPSGINDDYGQLKNFKKFKKVTYPGAGKLPHIIGGSDLIAHHARKNTELEEWLRQEMEVQNQHAKEESLADDLFRYNPYLKRRR
notes: NBS1, MBP- and His-tagged, in the pFastBac vector; also called MBP- and His-tagged NBS1; source: High Five cells (baculovirus), purified (amylose beads, Ni-NTA)
With B1, the binding result in assay [1] and in assay [2] was “binds” throughout.
